From the DeepSol protein solubility set

Experiment: soluble on expression in E. coli; label from the status in PepcDB or PDB records

Sequence | soluble on expression in E. coli
MGSDKIHHHHHHMGLALCGAAAQAQEKPNFLIIQCDHLTQRVVGAYGQTQGCTLPIDEVASRGVIFSNAYVGCPLSQPSRAALWSGMMPHQTNVRSNSSEPVNTRLPENVPTLGSLFSESGYEAVHFGKTHDMGSLRGFKHKEPVAKPFTDPEFPVNNDSFLDVGTCEDAVAYLSNPPKEPFICIADFQNPHNICGFIGENAGVHTDRPISGPLPELPDNFDVEDWSNIPTPVQYICCSHRRMTQAAHWNEENYRHYIAAFQHYTKMVSKQVDSVLKALYSTPAGRNTIVVIMADHGDGMASHRMVTKHISFYDEMTNVPFIFAGPGIKQQKKPVDHLLTQPTLDLLPTLCDLAGIAVPAEKAGISLAPTLRGEKQKKSHPYVVSEWHSEYEYVTTPGRMVRGPRYKYTHYLEGNGEELYDMKKDPGERKNLAKDPKYSKILAEHRALLDDYITRSKDDYRSLKVDADPRCRNHTPGYPSHEGPGAREILKRK | not soluble
MTLENNMDKKLFCISTYGCQMNEEDSEKLSGMLKSQGYERTENKEEASIIIFNTCCVRENAENKVFGNLGQLKQLKKKNPNLVIAICGCMMQQVGMADKVLKTFPYVDIIFGTHNAHKFPEYLHRVLQEGVQVKEILNKEEGIVEGLPIDRKSDVKAFVTIMYGCNNFCTYCIVPYVRGRERSRKSEDIIKEIEELVSQGYKEITLLGQNVNSYGKGLEEDIDFAGLLRKVNEVKGLERVRFMTSHPKDLSDDVIMAIKECDKLCEQVHLPVQSGSSRILKEMNRHYDREYYLDLVKKIKSEIPDVTLTTDIIIGFPGETEEDFLDTLSLCEEVGYDSAFTFIYSRRNHTPADKMENQIPDDIKHDRFNRLVEAINKKVVIKNKEYEGKVVEVLVEGPSKNDETKLTGRTRNGKLVNFAGDEKLVGELVNLKIVRAQPFSLIGEIVE | soluble
MGSDKIHHHHHHMPFENAPHLVFWEVTKACPLSCKHCRANAIDKPLPGELSTEESKKLLEDIARFGKVVIVFTGGDPLSRSDIFEIMEYAKSLGLIVSIAPSPSYRLRDETMKMISNYARYMSISIDGATSQTHDWLRGLGSYNYALRGIELGLKYGIQVQVNTLVWKKSYSELPFLVKLLKELGVKVWEVFFLIPVGRGVIELDIPKEKYKDVIDFLVETTRYDLVVRTVEAPFFRRAKLEYTPSTIKSNELVSKLRELLGEPVKDVDKSVLPTRDGSGVIFIGYNGDVYPSGFLPLYLGNVRKESIVDIYRKSEVLKIIKDGRFDGKCGVCKFNNICGGSRARAFAVYNNPFAEDPMCPY | not soluble
MGSDKIHHHHHHMAIRSNHILVSRTDNIGDIVLTLPMVARLRQLNPKAKISFLCRAYAAPLVRFCTDIDEVIELENIADDPAGFLRKSGIDTVILAQPDRTLAQAAFRARVRHRIGNARQKIYLMLYCNRRVRFSKRTTEDHEAQINFRFLSPYGSRDIPTREQIPDLYHFDIPEDKAISDMQAPYAFNLVLHTKSNGHGREWPIEHYAALAELLLARRDVHLWLSGSAKEGEWLKANGGALLAKPNVTSLCGTQTLGQLTTFIHQADGLIASGTGPLHLSAAIGQRTLGLFPPTRPMHPGRWAALGKRAQNLVRDKSCRDCEKLETISCDCMVQLSPQSVLEIVEGWIRDKSAA | not soluble
MTMFGKIFSKKTPKTDIKSNGEALNASEIEQFIKDTLSHYISDNFPQGVLAVCQQLSITQKKKITIKLLMPFVCQGELDLLAQTLSENLARTVNFEIDLAIKPVRQFSLGNDKNKAGQEGMLQGKVANIIAIASGKGGVGKSTTTVNLAYALMCEGARVGILDADIYGPSIPSMLGLKNEKPSSSDGKLMTPVDAKGLSAMSIGFLVDEADATVWRGPMASSAFNQLLNETDWPELDYLLIDMPPGTGDIQLTLAQKVPVAAAVIVTTPQDIALIDAVKGIAMFDKVKVPVLGIVENMSYHLCENCGHKSHIFGEAGGEHMAEDHETKLLGQLPLDITIRQDADFGESDIIENSAGEIANHYRKIARNVSAQLFLQCDTASPLTATVAHKALEHHHHHH | soluble
MLYLHDVWVNWFEGEENGYNVCHFYEWRKDDTIELLDQVPLLKVDATLYHYIENELLELPQKMLKTYIIRLIFVKIMNVCSKSIALLLQNGKGIIAIDTIGYNVPIRKSRLIPRQEQMVYEMVENVQAEKYEFQVEETEKEHHILSPSPFIMNGLTRKERQLKQLLFMALDQLHTTKNTAEIRYWFTEWDPSAYGMVQHMEFEDIWAKLYDEAKTGWSDKHEQLCERLVKGQPFFEKLWEMENEQKVN | not soluble
QAKPGGKEDSVLYQLMRARVALIYEETPGIAAKRFRAQLVENPKSEPARYGLAIAQIKGGQLNEARESLKPLLEKSPNDITYNLTQIDLDITNNRLADAQQRVDRMLTLYPTSYPLNDVRIDVLLKQNRTAEAEKSLEALLKTRPDDPDIWYVVAETRG | not soluble
MGSDKIHHHHHHMIGHSEVIRCFGMSGKVYFFNDSGNIQKGVHDLPPKGLACFVKIKNMMMQAKPAEVSMVDALVDPWLGAIGRDFEGYRNHCRRVFIFACTLAGAEGESREKIAIAAAFHDLGIWTDNTFDYLEPSKRLASAYLASTSKAEWTDEIKAMIEQHHKVTPWSCKPGWLVEPFRKADWIDVTLGARNFELNRSYIREIQRRYPNAGFHATLARLSFERMKTHPKDPLPMMRW | not soluble
MGSDKIHHHHHHMFKIVYPNAKDFFSFINSITNVTDSIILNFTEDGIFSRHLTEDKVLMAIMRIPKDVLSEYSIDSPTSVKLDVSSVKKILSKASSKKATIELTETDSGLKIIIRDEKSGAKSTIYIKAEKGQVEQLTEPKVNLAVNFTTDESVLNVIAADVTLVGEEMRISTEEDKIKIEAGEEGKRYVAFLMKDKPLKELSIDTSASSSYSAEMFKDAVKGLRGFSAPTMVSFGENLPMKIDVEAVSGGHMIFWIAPRL | not soluble
MDNIQQEKLKNLIRSLEKSASPQEAEYLMGEILVPLLAEDGYSIQAVGDQRDFGVDFIARKDKHEEQFPEEIAIEYKHYRKAAVGLDVVHRVLGAAMSMGLSRAMVITNSRFTYAAREAIRRSSPVGVELLDIDALRSWIGRIEEVPSIDVVQVNIIRREFSRRLIELILKNPRYLDEIEWREMERLLAEVFEGLGFSVRLTPGSKDGGKDIILTCQVATKNHTYYVEVKHWRSGQRVGSGAITEFLNVIINEQIDGGLYLSTYGYCSNSIESLTEIQRKSLRFGTENKVVTLCQSYVKAMSGIWAPDKLLPEVLYDNTL | not soluble
SLKVNNLIAGALNLNSKDYKKSGKKVSFDKNNLFSSIFQAESVKEDKHFILLENGEFNLDLIKSMLDGINETGERLLSEPSRQNVIFYKKVISEFISIIISSSVCLKEQKGGNLGDPKRPKYRIIKIINDKLDKLAYSVLQNQMTQIKLLDSIEEIQGLLVNLLM | soluble
SMHFVQQKVKVFRAADPLVGVFLWGVAHSINELSQVPPPVMLLPDDFKASSKIKVNNHLFHRENLPSHFKFKEYCPQVFRNLRDRFGIDDQDYLVSLTRNPPSESEGSDGRFLISYDRTLVIKEVSSEDIADMHSNLSNYHQYIVKCHGNTLLPQFLGMYRVSVDNEDSYMLVMRNMFSHRLPVHRKYDLKGSLVSREASDKEKVKELPTLRDMDFLNKNQKVYIGEEEKKIFLEKLKRDVEFLVQLKIMDYSLLLGIHDIIRGSEPEEEAPVREDESEVDGDCSLTGPPALVGSYGTSPEGIGGYIHSHRPLGPGEFESFIDVYAIRSAEGAPQKEVYFMGLIDILTQYDAKKKAAHAAKTVKHGAGAEISTVHPEQYAKRFLDFITNIFA | soluble
MGSDKIHHHHHHMLDKRAQILLKTLIEHYISDGQPVGSRKLSVASGLDLSPASIRNIMSELEDHGFIASPHTSAGRIPTQRGYRLFVDTLLTVQPLQNQEIRKLENVLSSPDPQELINKAAELLSSLTHFAGLVMIPKRQGAAFRHLEFLPLSEKRILVIIVTTDGAVQNRIILAEKPYSASDLTQASNFFNQHYAGNTLDEVKQKLHEELKQMQSDMTRLMAAALEASSKTADNKDGVVIAGKRNLLDVQDLSTNVSSLRKLFEMFEHRTSLMQLLDQSQKASGVQIFIGGESGYLPLDECSMVTAPYETNGQTIGTLGVIGPTRMAYERVIPIVDITAKLLSNALSNNH | not soluble
MGSDKIHHHHHHMLQLPDSPPRMKTLVSVDESYKLCRHLTAKYAKTFYLGTLLMSPVKRQSIWSIYAWCRRTDELVDGPASAITTPETLDLWEQQLESIFAGRPLENYDVALVDTLQRFPMDIQPFRDMIAGQRMDLYRSRYETFEDLYLYCYRVAGTVGLMSTEVMGVDSTLYTAPWHQNKQPYLPTEEAIALGIANQLTNILRDVGEDAKRGRIYIPLEDLEKFNYTEQDFFKGVVDDRWRALMRFQIERARQFYTTSNQGITYLASDARWPVWAASMLYGQILEVIERNDYDVFSRRAFVPQWKKLRTLPLAWMRSQVL | not soluble
MGSDKIHHHHHHMQERLIRLLEAIAGAANPPNATDLAQLTGLPRATIYRNISSLVDCGFVEVTDCGSRYVLGMRFVKIALTGKSDMHVINAVSAMMQQVVKTSGETGFLARYRGGRVDLIHIETPADPSLSYIYPGLGPRPAHACSSAKAIAAFITPELRDELLDIQPMRFNQNTITDPDQIQRELNQVRRYGYAICDGEIDEGVSSVAVPINVDRLGAIFSMGVVGPSNRIKPMVQNRILPVLSAEAVRAAAAIQHCSVVDAETTNAEALADAREGLNKTH | not soluble
MGSSHHHHHHSSGLVPRGSHMSGSGSGSGTALTPSYLKDDDGRSLILRGFNTASSAKSAPDGMPQFTEADLAREYADMGTNFVRFLISWRSVEPAPGVYDQQYLDRVEDRVGWYAERGYKVMLDMHQDVYSGAITPEGNSGNGAGAIGNGAPAWATYMDGLPVEPQPRWELYYIQPGVMRAFDNFWNTTGKHPELVEHYAKAWRAVADRFADNDAVVAYDLMNEPFGGSLQGPAFEAGPLAAMYQRTTDAIRQVDQDTWVCVAPQAIGVNQGLPSGLTKIDDPRAGQQRIAYCPHLYPLPLDIGDGHEGLARTLTDVTIDAWRANTAHTARVLGDVPIILGEFGLDTTLPGARDYIERVYGTAREMGAGVSYWSSDPGPWGPYLPDGTQTLLVDTLNKPYPRAVAGTPTEWSSTSDRLQLTIEPDAAITAPTEIYLPEAGFPGDVHVEGADVVGWDRQSRLLTVRTPADSGNVTVTVTPAA | soluble
MRAERRKQLFRLLGDLPDRRPISVETLRIEEREENIVETLLLDLNGHEKAPAYFVKPKKTEGPCPAVLFQHSHGGQYDRGKSELIEGADYLKTPSFSDELTSLGYGVLAIDHWGFGDRRGKAESEIFKEMLLTGKVMWGMMIYDSLSALDYMQSRSDVQPDRIGTIGMSMGGLMAWWTAALDDRIKVCVDLCSQVDHHVLIKTQNLDRHGFYYYVPSLAKHFSASEIQSLIAPRPHLSLVGVHDRLTPAEGVDKIEKELTAVYAGQGAADCYRVVRSASGHFETAVIRHEAVRFLQKWLLEHHHHHH | not soluble
MGSDKIHHHHHHMGNVSTFSIPGPARIPSAATTPAPHPWNRYVALGDSFTEGYGDPEPQSPGGVRGWADRVAEELSLGHQDFAYANLAVRGRLLQQIMDDQLGPALELRPDLVTLSAGGNDLVFRGSDPDKLAERLDPAIGLLSATGATVVLFTGPDWGNTPVFGRIRGKVAIFNENLRTIAARHDGVVADLWTLRQLAAPHMWDPDRLHFSPLGHHTIAAMVLETLNVPHTLKPLEPKVLPVSSWREARSSDLVWAKDYLFPWVVRRVRQRPANLGLKAKRPEPGPIFGPGVAHGPFPAGPLTAGKP | not soluble
MRFTISAAKPEDCKDIERMIMELAVYENMPDQVKISHKELERDGFGPNPFYHCLVAEVPEEHKSKDGNTTVGYVIFFYTYSTWKGRTVYMEDLYVMPEFRGNGIGKALLGAVAKEAKDQLCSRLQFSVLDWNKPSLDFYMAKGAEDLTAKEGWHFLRFHGMALDNLAQEAP | not soluble
